From paper PMC10797690, “The SIRT3-ATAD3A axis regulates MAM dynamics and mitochondrial calcium homeostasis in cardiac hypertrophy” (International Journal of Biological Sciences, 2024)

Target: T1, NAD+-dependent deacetylase Sirtuin 3 (SIRT3), protein used for SPR
T1 chain: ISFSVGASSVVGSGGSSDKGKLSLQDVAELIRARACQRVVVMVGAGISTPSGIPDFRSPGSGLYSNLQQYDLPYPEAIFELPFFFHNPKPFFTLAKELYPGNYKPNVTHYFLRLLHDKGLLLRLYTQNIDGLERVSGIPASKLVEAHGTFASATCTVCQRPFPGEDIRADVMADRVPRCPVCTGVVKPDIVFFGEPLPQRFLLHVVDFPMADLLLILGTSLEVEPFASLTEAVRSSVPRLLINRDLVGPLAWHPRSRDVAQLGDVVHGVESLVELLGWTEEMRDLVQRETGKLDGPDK
Assay: SPR; multicycle kinetics; which protein was immobilised is not told
Details: both partners purified

Kd: 50.9 nM
B1: ATPase family AAA-domain containing protein 3A (ATAD3A), protein used for SPR (natural protein)
chain: SWLFGINKGPKGEGAGPPPPLPPAQPGAEGGGDRGLGDRPAPKDKWSNFDPTGLERAAKAARELEHSRYAKDALNLAQMQEQTLQLEQQSKLKEYEAAVEQLKSEQIRAQAEERRKTLSEETRQHQARAQYQDKLARQRYEDQLKQQQLLNEENLRKQEESVQKQEAMRRATVEREMELRHKNEMLRVEAEARARAKAERENADIIREQIRLKAAEHRQTVLESIRTAGTLFGEGFRAFVTDWDKVTATVAGLTLLAVGVYSAKNATLVAGRFIEARLGKPSLVRETSRITVLEALRHPIQVSRRLLSRPQDALEGVVLSPSLEARVRDIAIATRNTKKNRSLYRNILMYGPPGTGKTLFAKKLALHSGMDYAIMTGGDVAPMGREGVTAMHKLFDWANTSRRGLLLFVDEADAFLRKRATEKISEDLRATLNAFLYRTGQHSNKFMLVLASNQPEQFDWAINDRINEMVHFDLPGQEERERLVRMYFDKYVLKPATEGKQRLKLAQFDYGRKCSEVARLTEGMSGREIAQLAVSWQATAYASEDGVLTEAMMDTRVQDAVQQHQQKMCWLKAEGPGRGDEPSPS
